Patent US9657088B2, “Anti-HSV antibody” (priority 2009, dated 2017)

B1: h2c-V1: humanized mAb 2c variant, CDR grafting onto DP28/DPK13, no backmutations (antibody, V domains shown)
VH: QVTLKESGPALVKPTQTLTLTCTFSGFSLSTSGMSVGWIRQPPGKALEWLAHIWWNNDKYYKPALKSRLTISKDTSKNQVVLTMTNMDPVDTATYYCARIYYGYRPYAMDYWGQGTLVTVSS
VL: DIVMTQTPLSLPVTPGEPASISCRSSQSIVHSNGNTYLEWYLQKPGQSPQLLIYKVSNRFSGVPDRFSGSGSGTDFTLKISRVEAEDVGVYYCFQGSHVPWSFGQGTKVEIKR

Legend:
[1] = tested on: patient derived HSV-1 isolate resistant towards Acyclovir, Foscarnet and Cidovovir; assay: Treatment of NOD/SCID mice infected with multi-resistant patient HSV-1 isolate; assay type: in vivo; settings: for protection against lethal encephalitis: 15 mg/kg i.v. at 24 h, 40 h and 56 h post infection
Description: Mice receiving twice daily standard treatment with Acyclovir all died within 28 days.
Furthermore, the humanized mAb 2c-V1 also confers protection from viral dissemination and lethal encephalitis in the presence of an established peripheral HSV infection. […] In contrast, mice receiving Acyclovir all died (FIG. 12).

[2] = tested on: human DNA polymerase; settings: background statement; cited from earlier work
[3] = biological target: T1, glycoprotein B on surface of HSV-1 F infected Vero cells (Human herpesvirus 1, UniProt P06436); assay: Affinity constants (KD) by flow cytometry on HSV-1 F infected Vero cells; assay type: binding
T1 construct: expressing the gB-protein as membrane associated glycoprotein on the cell surface during the natural HSV replication cycle; endogenous in cells; host or cells: Vero cells infected with HSV-1 F (MOI 3); gB is made by the virus in the infected cell

[4] = tested on: HSV-1 laboratory strains and clinical isolates; assay: Neutralization of HSV-1 laboratory strains and clinical isolates (FIG. 8); assay type: cell-based
Experimental: (§1) To determine the titer of mAb h2c-V1 for complete virus neutralization several antibody concentrations were incubated for 1 h at 37° C. with 100 TCID50 of HSV-1 or HSV-2 isolates and incubated for 3 days with Vero cells. MAb hu2c-V1 neutralizes HSV-1 laboratory strains HSV-1 F, HSV-1 324 hv, HSV-1 17 syn^+, HSV-1 TK^− completely at concentrations of 7.8-15.6 nM. HSV-1 clinical isolates are neutralized by mAb h2c-V1 similarly irrespective of their resistance profile. Furthermore, the same neutralization efficiency of mAb hu2c-V1 was shown for strain HSV-2 G and ACV-resistant HSV-2 isolates at concentrations of 31.3-62.5 nM.

[5] = tested on: HSV-2 G and ACV-resistant HSV-2 isolates; assay: Neutralization of HSV-2 strain and isolates (FIG. 8); assay type: cell-based; settings: 100 TCID50, 3 days
Experimental: as §1

[6] = biological target: T2, gB present on the surface of HSV-1 infected Vero cells (Human herpesvirus 1, UniProt P06436); assay: Competition study with mAb 2c by flow cytometry; assay type: binding; settings: increasing concentrations, then 100 nM mAb 2c
T2 construct: endogenous in cells; host or cells: Vero cells infected with HSV-1 (3 moi, 20 h)

[7] = tested on: HSV-1; assay: Plaque-reduction assay with or without human complement; assay type: cell-based; settings: 2 μg/ml, with or without 10% human complement
[8] = tested on: HSV-1 F; assay: Cell-to-cell spread assay in Vero cell monolayers; assay type: cell-based; settings: 500 nM, 48 h
Experimental: Vero cells grown to confluency on glass cover slips in 24-weel tissue culture plates are infected for 4 h at 37° C. with a constant virus amount of 400 TCID50/well. One median tissue culture infective dose (1 TCID50) is the amount of a cytopathogenic agent, such as a virus, that will produce a cytopathic effect in 50% of the cell cultures inoculated. The virus inoculum is subsequently removed, the cells washed twice with PBS and further incubated for 2 days at 37° C. in 1 ml DMEM, 2% FCS, Pen/Strep containing an excess of either different anti-HSV antibodies or polyclonal anti-HSV control serum in order to prevent viral spreading via the supernatant Viral antigens of HSV-infected cells are detected with a fluorescence labelled polyclonal goat-anti-HSV-serum (BETHYL Labolatories, Montgomery, Tex. USA, Catalog No. A190-136F, Lot No. A190-136F-2).
Two days after infection spreading of the virus was detected with fluorescence labeled polyclonal goat-anti-HSV serum using a Leica DM IRE2 confocal microscope at 40-fold magnification.
For spreading within a host HSV uses two mechanisms: release of cell-free particles and direct, cell-to-cell spread. […] Viral antigens were detected by staining of HSV-1 infected cell monolayers with FITC-conjugated polyclonal goat-anti-HSV serum (BETHYL, Montgomery, Tex., USA) diluted 1:100 in blocking buffer. […]

[9] = tested on: HSV-1 F; assay: Passive immunization of NOD/SCID mice 24 h before intravaginal HSV-1 challenge; assay type: in vivo; settings: 24 h prior to infection
Experimental: Mice were infected intravaginally with 1×10^6 TCID50/20 μl of the neurovirulent HSV-1 strain F. Infected mice with symptoms of weight loss, vulvitis/vaginitis or neurological diseases were killed, and their organs examined for infectious virus by titration on Vero cell monolayers as described previously. Non-infected mice were killed at day 30. Animals per group n=7.
Animals per group n=7 for PBS, n=9 all other groups.
(§2) Anesthetized female nonobese diabetic/severe combined immunodeficient (NOD-SCID) mice (NOD.CB17-Prkdc^scid/J, Charles River Laboratories, Research Models and Services, Sulzfeld, Germany), 6-8 weeks of age, were challenged intravaginally with 20 μl inoculum of 1×10^6 TCID50 HSV-1 F per mouse. Skin glue (Epiglu, Meyer-Haake Medical Innovations, Wehrheim, Germany) was applied onto the vulva to prevent discharge of the virus inoculum. […] Mice were examined daily after viral inoculation for loss of weight, vulvitis/vaginitis (redness, mucopurulent discharge and signs of inflammation) and neurological disease. Mice displaying any of theses symptoms were sacrificed immediately. […] Mice were assessed for infection by determination of virus titers from vaginal irrigations obtained on days 1, 2, 4, 6 and 8 after infection and at the time of death using the endpoint dilution assay on Vero cells. Viral loads in organs (spleen, adrenal gland, lung heart, liver, kidney, spinal cord, and brain) of sacrificed mice were determined after homogenization of organs by titration on Vero cell monolayers as described elsewhere (41). Each test and control group contained 9-10 animals with detectable HSV-1 infection.
Natural killer (NK) cells accumulating at the site of HSV-2 infection in humans (28) are the early source of interferon-γ (45), which plays an essential role for the control of HSV infection (2, 45, 62).

[10] = tested on: HSV-1 F; assay: Post-exposure treatment of NOD/SCID mice with established HSV-1 infection; assay type: in vivo; settings: 15 mg/kg i.v. at 24 h, 40 h and 56 h post infection
Experimental: Infected animals per group n=7.
Vaginal virus titers of antibody or control treated mice were determined from vaginal irrigations cultured on Vero cell monolayers. Error bars indicate standard deviation.
as §2

Row | Molecule | outcome of infection ([1]; standard treatment with Acyclovir) | time by which all mice died ([1]; twice daily standard treatment) | factor by which human DNA polymerase is less susceptible than viral DNA polymerase [2] | affinity in comparison to mAb 2c [3] | concentration for complete neutralization ([4]; HSV-1 F, HSV-1 324 hv, HSV-1 17 syn+, HSV-1 TK−, 100 TCID50, 3 days) | neutralization of patient isolates clinically resistant to ACV, ACV and PFA, or ACV, PFA and CDV ([4]; compared with non-resistant laboratory strains) | concentration for complete neutralization [5] | competition with parental mAb 2c for binding [6] | complement dependence of HSV neutralization [7] | inhibition of cell-to-cell spread [8] | protection against lethal encephalitis ([9]; 15 mg/kg i.v.) | survival ([9]; single i.v. dose of 5 mg/kg) | protection from lethal outcome of established infection [10] | protection against lethal encephalitis ([1]; listed as mAb 2c-V1) | protection against lethal encephalitis ([1]; listed as mAb hu2c-V1)
1 | Nc1nc(=O)c2ncn(COCCO)c2[nH]1 [Acyclovir, 2-Amino-9-(2-hydroxyethoxymethyl)-3H-purin-6-on, reference compound] | all died | ≤ 28 days | 30-50 | – | – | – | – | – | – | – | – | – | – | – | –
2 | B1 | – | – | – | affinity comparable to the murine mAb 2c | 7.8 to 15.6 nM | with the same efficiency as non-resistant laboratory strains or clinical isolates with unknown resistance | 31.3 to 62.5 nM | compete with the parental mAb 2c for binding to gB | neutralize HSV complement-independent | as efficient as the parenteral mAb 2c | fully protected against lethal encephalitis | prolongs the survival | completely protected from the lethal outcome of infection | prevented lethal encephalitis | significantly protected against lethal encephalitis
